Laboratory results as given in patent US20110184152A1.

How the values were obtained:
[1] = biological target: human serum albumin (human) (UniProt P02768); assay: SPR (BIAcore)
[2] = biological target: mouse serum albumin (mouse) (UniProt P07724); assay: SPR (Biacore), purified construct

Row | Binder | Kd [1] | koff [1] | kon [1] | Kd [2]
1 | FabB-645dsFv (S3×G4S), Fv heavy mutation T100aA (bispecific antibody, part only; not given: anti-OX40 Fab and linkers, V domains shown, not shown: another chain or arm of the molecule; small tags and cut ends, Interchain disulfide between VH Cys44 and VL Cys100 (Kabat) of the dsFv) VH: EVQLLESGGGLVQPGGSLRLSCAVSGIDLSNYAINWVRQAPGKCLEWIGIIWASGTTFYATWAKGRFTISRDSTTVYLQMNSLRAEDTAVYYCARTVPGYSAAPYFDLWGQGTLVTVSS VL: DIVMTQSPSSVSASVGDRVTITCQSSPSVWSNFLSWYQQKPGKAPKLLIYEASKLTSGVPSRFKGSGSGTDFTLTISSLQPEDFATYYCGGGYSSISDTTFGCGTKVEIK | 51.6 nM | 0.0186 s⁻¹ | 360000 M⁻¹ s⁻¹ | 
2 | FabB-648dsFv (2xG4S) (bispecific antibody, part only; not given: anti-OX40 Fab and linkers, V domains shown, not shown: another chain or arm of the molecule; a dimerising Fc or GST; small tags and cut ends, Engineered interchain disulphide between VH Cys44 and VL Cys100 (Kabat; linear position 103 of the VL).) VH: EVQLVESGGGLVQPGGSLRLSCAVSGFSLSRYAMTWVRQAPGKCLEWIGTITTGGNTNYANWAKGRFTISKDSTTVYLQMNSLRAEDTAVYYCARGGYVSYADATELSLWGQGTLVTVSS VL: DIVMTQSPSTLSASVGDRVTITCQASQSIGSRLAWYQQKPGKAPKLLIYYASTVASGVPSRFKGSGSGTEFTLTISSLQPDDFATYYCQSYDYSSSSSYAFGCGTKVEIK |  |  |  | 59.6 nM
